From patent US20250215104A1 (WALDEN BIOSCIENCES, published 2025)

Columns and labels:
[1] = molecular target: T1, human soluble urokinase plasminogen activator receptor (suPAR) (human, UniProt Q03405 23-303, limits assumed); experiment: off-rate (kdis) screen of scFv clones, biosensor (Octet)
T1 construct: Target antigen of the off-rate screen; also called hsuPAR; human suPAR

[2] = molecular target: T2, cynomolgus soluble urokinase plasminogen activator receptor (suPAR) (cynomolgus, UniProt Q9GK78 23-303, limits assumed); experiment: as above
T2 construct: Target antigen of the off-rate screen; also called cynomolgus uPAR; cynomolgus suPAR
T2 sequence (Q9GK78 23-303 limits assumed): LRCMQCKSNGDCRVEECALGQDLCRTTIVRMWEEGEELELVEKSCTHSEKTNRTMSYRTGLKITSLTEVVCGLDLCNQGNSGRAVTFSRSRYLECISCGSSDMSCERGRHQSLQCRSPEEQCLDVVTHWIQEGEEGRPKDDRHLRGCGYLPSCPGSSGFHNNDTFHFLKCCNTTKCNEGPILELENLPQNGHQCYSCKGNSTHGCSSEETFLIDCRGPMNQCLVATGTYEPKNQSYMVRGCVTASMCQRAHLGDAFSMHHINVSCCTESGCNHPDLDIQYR

[3] = molecular target: T3, human soluble urokinase plasminogen activator receptor (hsuPAR) (human, UniProt Q03405 23-303, limits assumed); experiment: BLI (Octet) off-rate screen of scFv clones
T3 construct: Target antigen of the off-rate screen; also called human suPAR; rhuPAR-His
T3 sequence (Q03405 23-303 limits assumed): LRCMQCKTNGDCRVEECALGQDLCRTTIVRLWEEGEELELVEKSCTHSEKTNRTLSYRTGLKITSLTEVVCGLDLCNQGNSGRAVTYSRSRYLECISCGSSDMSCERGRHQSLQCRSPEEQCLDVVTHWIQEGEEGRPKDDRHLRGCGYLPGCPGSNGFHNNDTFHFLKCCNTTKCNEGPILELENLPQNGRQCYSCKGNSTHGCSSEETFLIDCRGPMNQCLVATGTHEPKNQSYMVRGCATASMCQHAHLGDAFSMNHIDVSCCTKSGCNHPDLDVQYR

[4] = molecular target: T4, cynomolgus suPAR (cynomolgus, UniProt Q9GK78 23-303, limits assumed); experiment: BLI (Octet) off-rate screen of scFv clones
T4 construct: Target antigen of the off-rate screen; also called cynomolgus uPAR; cynoPLAUR-His
T4 sequence (Q9GK78 23-303 limits assumed): as the sequence (Q9GK78 23-303 limits assumed) above

T1 sequence (Q03405 23-303 limits assumed): as the sequence (Q03405 23-303 limits assumed) above

Row | koff [1] | koff [2] | koff [3] | koff [4] | Binder
1 | 0.0117 s⁻¹ | 0.0212 s⁻¹ |  |  | suPAR_DB01_E12 (scFv, V domains shown, screened as scFv) VH: QVQLVQSGAEVKKPGASVKVSCKASGGTFSSYAISWVRQAPGQGLEWLGVINPGGGGTNYAQKFQGRVTMTRDTSTSTVYMELSSLRSEDTAVYYCARGYDVDWFVTWGQGTLVTVSS VL: DIQMTQSPSSLSASVGDRVTITCQASQDISNYINWYQQKPGKAPKLLIYDASNLASGVPSRFSGSGSGTDFTLTISSLQPEDFATYYCQQYHSYPPTFGGGTKVEIK
2 |  |  | 0.00347 s⁻¹ | 0.00026 s⁻¹ | suPAR_DB03_B03 (scFv, V domains shown, screened as scFv) VH: QVQLVQSGAEVKKPGASVKVSCKASGYTFTNYYMHWVRQAPGQGLEWMGWIDPENGSTIYDQKFQGRVTMTRDTSTSTVYMELSSLRSEDTAVYYCARGYDVDWFVYWGQGTLVTVSS VL: DIQMTQSPSSLSASVGDRVTITCSARSSVSYMYWYQQKPGKAPKLLIYRTSNLASGVPSRFSGSGSGTDFTLTISSLQPEDFATYYCQQYHSYPPTFGGGTKVEIK
3 |  |  | 0.00305 s⁻¹ | 0.000393 s⁻¹ | suPAR_DB02_H06 (scFv, V domains shown, screened as scFv) VH: QVQLVQSGAEVKKPGASVKVSCKASGFNIKDYYIHWVRQAPGQGLEWMGWIDPEGGNTIYAQKFQGRVTMTRDTSTSTVYMELSSLRSEDTAVYYCARGYDVDWFVYWGQGTLVTVSS VL: DIQMTQSPSSLSASVGDRVTITCRARSSVSYMYWYQQKPGKAPKLLIYRTSNLASGVPSRFSGSGSGTDFTLTISSLQPEDFATYYCQQYHSYPPTFGGGTKVEIK
4 |  |  | 0.00317 s⁻¹ | 0.00146 s⁻¹ | suPAR_DB02_H07 (scFv, V domains shown, screened as scFv) VH: QVQLVQSGAEVKKPGASVKVSCKASGYTFTSYYVHWVRQAPGQGLEWMGWVDPSSGATDYAQKFQGRVTMTRDTSTSTVYMELSSLRSEDTAVYYCARGYDVDWFVYWGQGTLVTVSS VL: DIQMTQSPSSLSASVGDRVTITCSARSSVSYMYWYQQKPGKAPKLLIYRTSNLASGVPSRFSGSGSGTDFTLTISSLQPEDFATYYCQQYHSYPPTFGGGTKVEIK
5 |  |  | 0.00485 s⁻¹ | 0.000228 s⁻¹ | suPAR_DB02_H08 (scFv, V domains shown, screened as scFv) VH: QVQLVQSGAEVKKPGASVKVSCKASGYTFTGYYIHWVRQAPGQGLEWMGWIDPENGSTIYDQKFQGRVTMTRDTSTSTVYMELSSLRSEDTAVYYCARGYDVDWFVYWGQGTLVTVSS VL: DIQMTQSPSSLSASVGDRVTITCSARSSVSYMYWYQQKPGKAPKLLIYRTSNLASGVPSRFSGSGSGTDFTLTISSLQPEDFATYYCQQYHSYPPTFGGGTKVEIK
6 |  |  | 0.0338 s⁻¹ | 0.00218 s⁻¹ | suPAR_DB02_H09 (scFv, V domains shown, screened as scFv) VH: QVQLVQSGAEVKKPGASVKVSCKASGYTFTSYYMHWVRQAPGQGLEWMGWIDPENGNTIYAQKFQGRVTMTRDTSTSTVYMELSSLRSEDTAVYYCARGYDVDWFVFWGQGTLVTVSS VL: DIQMTQSPSSLSASVGDRVTITCSARSSVSYMYWYQQKPGKAPKLLIYATSNLQSGVPSRFSGSGSGTDFTLTISSLQPEDFATYYCQQYHSYPPTFGGGTKVEIK
7 |  |  | 0.00344 s⁻¹ | 0.000189 s⁻¹ | suPAR_DB02_H10 (scFv, V domains shown, screened as scFv) VH: QVQLVQSGAEVKKPGASVKVSCKASGYTFTSYYMHWVRQAPGQGLEWMGWIDHSNGNTIYDQKFQGRVTMTRDTSTSTVYMELSSLRSEDTAVYYCARGYDVDWFVYWGQGTLVTVSS VL: DIQMTQSPSSLSASVGDRVTITCSARQSVSYMYWYQQKPGKAPKLLIYRTSNLASGVPSRFSGSGSGTDFTLTISSLQPEDFATYYCQQYHSYPPTFGGGTKVEIK
8 |  |  | 0.00199 s⁻¹ | 0.000319 s⁻¹ | suPAR_DB03_A03 (scFv, V domains shown, screened as scFv) VH: QVQLVQSGAEVKKPGASVKVSCKASGYTFTGYYMHWVRQAPGQGLEWMGWIDHENGSTIYDQKFQGRVTMTRDTSTSTVYMELSSLRSEDTAVYYCAVGYDVDWFVYWGQGTLVTVSS VL: DIQMTQSPSSLSASVGDRVTITCSARSSVSYMYWYQQKPGKAPKLLIYRTSNLASGVPSRFSGSGSGTDFTLTISSLQPEDFATYYCQQYHSYPPTFGGGTKVEIK
